This note sets out measurements from article PMC9923014, “BIN2 phosphorylates the Thr280 of CO to restrict its function in promoting Arabidopsis flowering” (Frontiers in Plant Science, 2023).

This assay deals with T1, MBP-BIN2 (Arabidopsis thaliana, UniProt Q39011 1-380).
T1 construct: also called BIN2-MBP; source: E. coli strain Transetta-DE3, purified
T1 sequence (looked up): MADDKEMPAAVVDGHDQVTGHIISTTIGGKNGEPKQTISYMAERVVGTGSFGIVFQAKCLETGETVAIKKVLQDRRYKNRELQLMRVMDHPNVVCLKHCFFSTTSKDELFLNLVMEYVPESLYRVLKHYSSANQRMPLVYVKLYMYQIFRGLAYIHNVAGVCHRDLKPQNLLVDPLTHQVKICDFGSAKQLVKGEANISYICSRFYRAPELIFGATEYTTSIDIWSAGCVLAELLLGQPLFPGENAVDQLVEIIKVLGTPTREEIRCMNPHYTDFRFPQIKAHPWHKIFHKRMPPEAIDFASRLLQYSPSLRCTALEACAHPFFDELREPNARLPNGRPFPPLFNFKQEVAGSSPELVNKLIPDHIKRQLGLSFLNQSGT
Description: pull-down; MBP pull-down on amylose resin; purified GST-CO incubated with MBP or MBP-BIN2 overnight at 4°C; 20 mM Tris pH 8.0, NaCl, 1 mM EDTA; immunoblot with anti-MBP and anti-GST. As to conditions: both partners purified. A general note: A western blot detects proteins with antibodies after separation by electrophoresis.

B1: GST-CO (natural protein, Arabidopsis thaliana, UniProt Q39057 1-373, looked up)
chain: MLKQESNDIGSGENNRARPCDTCRSNACTVYCHADSAYLCMSCDAQVHSANRVASRHKRVRVCESCERAPAAFLCEADDASLCTACDSEVHSANPLARRHQRVPILPISGNSFSSMTTTHHQSEKTMTDPEKRLVVDQEEGEEGDKDAKEVASWLFPNSDKNNNNQNNGLLFSDEYLNLVDYNSSMDYKFTGEYSQHQQNCSVPQTSYGGDRVVPLKLEESRGHQCHNQQNFQFNIKYGSSGTHYNDNGSINHNAYISSMETGVVPESTACVTTASHPRTPKGTVEQQPDPASQMITVTQLSPMDREARVLRYREKRKTRKFEKTIRYASRKAYAEIRPRVNGRFAKREIEAEEQGFNTMLMYNTGYGIVPSF
notes: also called CO-GST; source: E. coli strain Transetta-DE3, purified
In the case of B1, the binding result is reported as “binds”.
